According to publication PMC3093405, “A Motif Unique to the Human Dead-Box Protein DDX3 Is Important for Nucleic Acid Binding, ATP Hydrolysis, RNA/DNA Unwinding and HIV-1 Replication” (PLoS ONE, 2011):

Columns and labels:
DDX3wt (Homo sapiens) = DDX3wt (Homo sapiens) (UniProt O00571); assay: filter binding; conditions: no ATP hydrolysis; 3 mM Mg2+; 50 µg/ml salmon sperm DNA; EMSA: on ice, protein buffer 25 mM Tris-HCl pH 7.5, 0.5 mM DTT, 20% glycerol, 100 mM NaCl plus 5x binding buffer (10% glycerol, 5 mM MgCl2, 2.5 mM EDTA pH 8 …)
[1] = target: DDX3ΔINS del250-259 (Homo sapiens) (UniProt O00571); assay: filter binding; conditions: no ATP hydrolysis; 3 mM Mg2+; 50 µg/ml salmon sperm DNA; EMSA: on ice, protein buffer 25 mM Tris-HCl pH 7.5, 0.5 mM DTT, 20% glycerol, 100 mM NaCl plus 5x binding buffer (10% glycerol, 5 mM MgCl2, 2.5 mM EDTA pH 8 …)
Sequence of DDX3ΔINS del250-259 (Homo sapiens) (O00571 other isoform, or with tags, fused parts or gaps mutant): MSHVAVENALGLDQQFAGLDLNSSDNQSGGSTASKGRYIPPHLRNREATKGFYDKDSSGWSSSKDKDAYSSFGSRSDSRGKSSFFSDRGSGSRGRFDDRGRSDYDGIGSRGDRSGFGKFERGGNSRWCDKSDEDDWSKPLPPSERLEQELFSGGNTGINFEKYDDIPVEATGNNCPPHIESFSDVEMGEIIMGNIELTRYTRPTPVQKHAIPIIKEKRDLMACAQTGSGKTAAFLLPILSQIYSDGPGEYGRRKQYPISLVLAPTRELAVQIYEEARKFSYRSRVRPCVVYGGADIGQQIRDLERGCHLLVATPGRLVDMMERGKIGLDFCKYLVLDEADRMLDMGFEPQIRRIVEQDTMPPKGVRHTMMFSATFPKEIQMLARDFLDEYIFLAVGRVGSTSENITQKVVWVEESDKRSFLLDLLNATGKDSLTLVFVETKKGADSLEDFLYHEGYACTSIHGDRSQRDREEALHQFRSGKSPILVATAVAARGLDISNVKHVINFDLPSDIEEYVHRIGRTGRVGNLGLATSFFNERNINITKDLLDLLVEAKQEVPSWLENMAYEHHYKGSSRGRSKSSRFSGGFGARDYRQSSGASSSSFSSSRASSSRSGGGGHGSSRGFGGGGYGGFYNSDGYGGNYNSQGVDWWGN

Sequence of DDX3wt (Homo sapiens) (O00571 whole entry): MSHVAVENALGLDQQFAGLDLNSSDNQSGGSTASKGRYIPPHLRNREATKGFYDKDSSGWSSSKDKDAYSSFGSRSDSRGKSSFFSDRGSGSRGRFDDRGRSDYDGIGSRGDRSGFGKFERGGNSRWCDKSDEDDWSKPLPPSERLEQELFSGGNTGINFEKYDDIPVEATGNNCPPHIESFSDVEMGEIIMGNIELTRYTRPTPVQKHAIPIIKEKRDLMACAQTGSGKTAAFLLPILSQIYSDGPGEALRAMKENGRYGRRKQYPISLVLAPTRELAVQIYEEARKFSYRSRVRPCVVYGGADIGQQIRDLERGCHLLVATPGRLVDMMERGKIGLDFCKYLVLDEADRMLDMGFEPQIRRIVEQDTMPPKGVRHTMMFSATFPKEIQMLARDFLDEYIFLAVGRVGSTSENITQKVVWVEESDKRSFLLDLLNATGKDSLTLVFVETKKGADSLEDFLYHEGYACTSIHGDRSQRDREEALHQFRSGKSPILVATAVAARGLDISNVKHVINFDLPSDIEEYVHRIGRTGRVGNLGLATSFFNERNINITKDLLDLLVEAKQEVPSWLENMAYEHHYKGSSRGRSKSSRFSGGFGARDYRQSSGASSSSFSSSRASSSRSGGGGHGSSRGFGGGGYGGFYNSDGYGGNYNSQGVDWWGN

18/36mer dsDNA showed a binding signal (fold (reference affinity)) (DDX3wt (Homo sapiens)) of 1 and a binding signal (fold reduced affinity vs DDX3wt) [1] of 2.1.
